Data taken from patent US20190262327A1 (AstraZeneca / MedImmune, published 2019).
Numbering of substitutions follows the chain as printed.

T1: unlabelled murine Amyloid beta 1-40 peptide (murine, UniProt P12023 672-711)
T1 construct: domain: Amyloid beta 1-40 peptide
T1 peptide (looked up): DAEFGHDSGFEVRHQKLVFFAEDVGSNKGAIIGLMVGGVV

T2: unlabelled murine Amyloid beta 1-42 peptide (murine, UniProt P12023 672-713)
T2 construct: domain: Amyloid beta 1-42 peptide
T2 peptide (looked up): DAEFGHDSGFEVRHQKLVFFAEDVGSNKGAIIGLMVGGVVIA

B1: Abet0380 scFv (scFv, V domains shown, not shown: small tags and cut ends)
VH: EVQLLESGGGLVQPGGSLRLSCAASMGNFNYQTMWWVRQAPGRGLEWVSVIGKTNENIAYADSVKGRFTISRDNSKNTLYLQMNSLRAEDTAVYYCAREWMDHSRPYYYYGMDVWGQGTLVTVSS
VL: SYELTQPPSVSVSPGQTASITCSGHNLEDKFASWYQQKPGQSPVLVIYRDDKRPSGIPERFSASNSGHTATLTISGTQATDEADYYCSSQDTVTRVFGGGTKLTVL
notes: Purified scFv expressed in E. coli
B2: Abet0374 scFv (scFv, V domains shown, not shown: small tags and cut ends)
VH: EVQLLESGGGLVQPGGSLRLSCAASGFQFKDTPMWWVRQAPGKGLEWVSVIGDQNHKKAYADSVKGRFTISRDNSKNTLYLQMNSLRAEDTAVYYCAREWMDHSRPYYYYGMDAWGQGTLVTVSS
VL: B1 VL with S13T, E28G, D29G, S66F
notes: as for B1
B3: Abet0144-GL scFv (scFv, V domains shown, not shown: small tags and cut ends)
VH: EVQLLESGGGLVQPGGSLRLSCAASGFTFSVYTMWWVRQAPGKGLEWVSVIGSSGGTTVYADSVKGRFTISRDNSKNTLYLQMNSLRAEDTAVYYCAREWMDHSRPYYYYGMDVWGQGTLVTVSS
VL: B1 VL with T80M, S88Q, S89A, T92S, V93T
notes: Purified scFv expressed in E. coli; also called parent clone
B4: Abet0369 scFv (scFv, V domains shown, not shown: small tags and cut ends)
VH: EVQLLESGGGLVQPGGSLRLSCAASSFQISKNTMWWVRRAPGKGLEWVSVIGKDETRFNYADSVKGRFTISRDNSKNTLYLQMNSLRAEDTAVYYCAREWMDHSRPYYYYGMDVWGQGTLVTVSS
VL: B1 VL with E3G, H25R, L27I, E28G, K30S, F31W, A32V, S33A
notes: as for B1
B5: Abet0377 scFv (scFv, V domains shown, not shown: small tags and cut ends)
VH: B1 VH with M26G, G27F, Y31E, M34L, R43K, K53V, T54G, N55T, E56K, S63T
VL: B1 VL with L27T, D29H, F31W, A32I, S64T
notes: as for B1
B6: Abet0322b scFv (scFv, V domains shown, not shown: small tags and cut ends)
VH: B3 VH with G26N, F27E, T28E, S30Q, V31Y, Y32N, T33P, T57A, S63A, K76E
VL: B1 VL with E28G, G56E
notes: as for B1
B7: Abet0321b scFv (scFv, V domains shown, not shown: small tags and cut ends)
VH: B3 VH with G26A, F27Y, T28H, F29S, S30N, V31H, Y32D, T33P, V59A
VL: B1 VL with V46I
notes: as for B1
B8: Abet0323b scFv (scFv, V domains shown, not shown: small tags and cut ends)
VH: EVQLLESGGGLVQPGGSLRLSCAASTSTFQEDTMWWVRQAPGKGLEWVSVIGPNPKNNAYADSVKGRFTISRDNSKNTLYLQMNSLRAEDTAVYYCAREWMDHSRPYYYYGMDVWGQGTLVTVSS
VL: B1 VL with I57V, T104I
notes: as for B1
B9: Abet0380-GL (germlined) IgG1-TM (antibody, V domains shown)
VH: B1 VH with R43K
VL: B1 VL with T80M
notes: also called Abet0380-GL IgG1-TM; Abet0380-GL IgG1TM

Columns and labels:
[1] = target: B9; assay: HTRF competition: unlabelled peptide titrated against the binding of N-terminal biotin Abeta 1-42 (1.5 nM) to Abet0380-GL IgG1-TM (0.5 nM)
Protocol: The assay was then incubated for a further 2 hrs at room temperature before reading on an Envision plate reader (PerkinElmer) using a standard homogeneous time resolved fluorescence (HTRF) read protocol.
The final assay volume was 20 μl and all reagents were prepared in an assay buffer comprising MOPS pH7.4 (50 mM), potassium fluoride (0.4M), tween 20 (0.1%) & fatty acid free BSA (0.1%). The assay was performed in low volume 384 well black assay plates (Costar 3676).

[2] = target: T3, biotinylated synthetic human Amyloid beta 1-42 peptide (human, UniProt P05067 672-713, biotinylated (N-terminal biotin in Example 4)); assay: Surface Plasmon Resonance, purified scFv (group statement that sums up Table 5)
T3 construct: domain: Amyloid beta 1-42 peptide; Numbers 1-42 count on the Amyloid beta peptide, not on APP; also called biotinylated human Amyloid beta 1-42; N-terminal biotin Abeta 1-42

[3] = target: T3, biotinylated synthetic human Amyloid …; assay: HTRF epitope competition; purified scFv titrated; competitor Abet0144-GL IgG1-TM
Protocol: (§1) Two thousand and twenty four scFv chosen at random from selection rounds 3 and 4 of the targeted mutagenesis approach described in section 1.2 were expressed in bacteria to produce unpurified periplasmic scFv.
(§2) One thousand six hundred and seventy two scFv, randomly selected from selection rounds 9 to 11, were screened in an epitope competition assay as described in section 1.3.
(§3) Where the assay was performed more than once, the absolute range of IC₅₀ values is provided.
Target sequence in this assay (P05067 672-713 limits assumed): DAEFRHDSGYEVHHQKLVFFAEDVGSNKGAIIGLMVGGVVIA

[4] = target: T3, biotinylated synthetic human Amyloid …; assay: SPR (ProteOn); biotinylated peptide on streptavidin chip, scFv in solution; 1:1 Langmuir fit
Protocol: (§4) These experiments were performed essentially as described by Karlsson et al. (Karlsson et al., 1991).
(§5) The chip surface was regenerated between cycles by a single 60 second injection of 10 mM Glycine pH 2.0 to remove scFv bound to the peptide.
(§6) Each scFv at 100-200 nM was sequentially passed over the peptide surface for a sufficient amount of time to observe sensorgrams that could be fitted to an appropriate binding model with confidence. An irrelevant scFv blank was subtracted from the main dataset to reduce the impact of any buffer artefacts or non-specific binding effects. An appropriate binding model was then fitted to the data.

[5] = target: T3, biotinylated synthetic human Amyloid …; assay: HTRF epitope competition; purified scFv titrated; competitor Abet0144-GL IgG1-TM; range of repeats
Protocol: as §1, §2, §3
Target sequence in this assay (P05067 672-713 limits assumed): as above

[6] = target: T3, biotinylated synthetic human Amyloid …; assay: HTRF epitope competition: purified scFv titrated against the complex of biotinylated human Amyloid beta 1-42 and Abet0144-GL IgG1-TM [upper graph; the letter C stands below it]
Description: as §1, §2

[7] = target: T3, biotinylated synthetic human Amyloid …; assay: SPR (ProteOn); biotinylated peptide on streptavidin chip, scFv in solution
Protocol: as §4, §5, §6
Target sequence in this assay (P05067 672-713 limits assumed): as above

[8] = target: T3, biotinylated synthetic human Amyloid …; assay: HTRF epitope competition: purified scFv titrated against the complex of biotinylated human Amyloid beta 1-42 and Abet0144-GL IgG1-TM
Description: as §1, §2

[9] = target: T4, synthetic human Amyloid beta 1-42 peptide (human, UniProt P05067 672-713); assay: SPR (BIAcore T-100); IgG captured on protein G, peptide 0.063-1024 nM in solution; 1:1 Langmuir fit
T4 construct: domain: Amyloid beta 1-42 peptide; also called Abeta 1-42
Protocol: The chip surface was regenerated between cycles by paired 40 second injections of 10 mM Glycine pH 2.0 to remove ligand and bound antibody. The test antibody was then reapplied for each peptide injection.
Blank reference flow-cell data were subtracted from each IgG dataset and a zero-concentration antibody-only buffer blank was double-reference subtracted from the main dataset. An appropriate binding model was then fitted simultaneously to the data from each analyte titration using the BIAevaluation software.

[10] = target: T5, biotinylated human Amyloid beta 1-40 peptide (human, UniProt P05067 672-711, biotinylated); assay: Surface plasmon resonance (BIAcore), antibody captured on protein G, single cycle with five peptide injections
T5 construct: domain: Amyloid beta 1-40 peptide
Protocol: as §4
(§7) The interaction between each test IgG and each peptide was estimated using assays in which the antibody was non-covalently captured by a protein G surface that was itself amine linked to a proprietary CM5 chip. […] The chip surface was regenerated between cycles by paired 40 second injections of 10 mM Glycine pH 2.0 to remove ligand and bound antibody. The test antibody was then reapplied for each peptide injection cycle.
(§8) Blank reference flow-cell data were subtracted from each IgG dataset and a zero-concentration antibody-only buffer blank was double-reference subtracted from the main dataset.

[11] = target: T1, unlabelled murine Amyloid beta 1-40 …; assay: as above
Protocol: as §4, §7, §8

[12] = target: T2, unlabelled murine Amyloid beta 1-42 …; assay: Surface plasmon resonance (BIAcore), antibody captured on protein G, single cycle with five peptide injections (64 to 1024 nM by paragraph 390)
Protocol: as §4, §7, §8

Binder | IC50 [3] | IC50 [5] | Kd [7] | koff [7] | kon [7] | further results
LVFFAEDVGSNKGAIIGLMVGGVVIA (peptide, UniProt P05067 688-713, looked up, domain: Abeta 17-42) [human Abeta 17-42 peptide] | – | – | – | – | – | IC50 (read off the curve) [1]: ~5 nM
B1 | 0.43 nM | 0.38 to 0.47 nM | – | – | – | Kd [2]: < 0.25 nM; Kd [4]: 0.148 nM; koff [4]: 2.85e-05 s⁻¹; kon [4]: 193000 M⁻¹ s⁻¹; IC50 (read off the curve) [6]: ~0.5 nM
B2 | 0.42 nM | 0.41 to 0.43 nM | 0.236 nM | 6.04e-05 s⁻¹ | 256000 M⁻¹ s⁻¹ | –
B3 | 14 nM | 8.1 to 18 nM | 58.7 nM | 0.0066 s⁻¹ | 116000 M⁻¹ s⁻¹ | –
B4 | 0.36 nM | 0.3 to 0.41 nM | 0.133 nM | 4.34e-05 s⁻¹ | 327000 M⁻¹ s⁻¹ | IC50 (read off the curve) [8]: ~0.4 nM
B5 | 0.32 nM | 0.29 to 0.35 nM | 0.154 nM | 3.02e-05 s⁻¹ | 196000 M⁻¹ s⁻¹ | IC50 (read off the curve) [8]: ~0.3 nM
B6 | 0.71 nM | 0.43 to 0.98 nM | 0.812 nM | 0.000165 s⁻¹ | 203000 M⁻¹ s⁻¹ | –
B7 | 0.73 nM | 0.69 to 0.76 nM | 0.222 nM | 3.33e-05 s⁻¹ | 150000 M⁻¹ s⁻¹ | –
B8 | 0.67 nM | 0.57 to 0.76 nM | 0.894 nM | 0.000188 s⁻¹ | 210000 M⁻¹ s⁻¹ | –
B9 | – | – | – | – | – | Kd [9]: 0.322 nM; koff [9]: 0.000307 s⁻¹; kon [9]: 952000 M⁻¹ s⁻¹; binding result [10]: no binding; binding result [11]: no binding; binding result [12]: binds
VHHQKLVFFAEDVGSNK (peptide, UniProt P05067 683-699, looked up, domain: Abeta 12-28) [human Abeta 12-28 peptide] | – | – | – | – | – | binding result [1]: no binding (tested: log -5 M (10 uM))
DAEFRHDSGYEVHHQK (peptide, UniProt P05067 672-687, looked up, domain: Abeta 1-16) [human Abeta 1-16 peptide] | – | – | – | – | – | binding result [1]: no binding (tested: log -5 M (10 uM))
